Data taken from the supplement of paper PMC6757056.
± gives the standard deviation of the averaged measurements.

B1: library; a variant is named by its letters at N, in order (parent)
chain: GCUGUCACCGAGAAACUGUGAAGUAUAUCUUAAACCUGGGCACUUAAAAGAUAUAUGGAGUUAGUAGUGCAACCUGCUCGGUCUGAUGAGUCCNNNNNNGGACGAAACAGC

What was measured:
[1] = variants of: B1; assay: normalized RNA/DNA level without ligand (relative to sTRSVctl = 100) (log10 (% of sTRSVctl)); HEK293T; ligand: cyclic di-GMP (c-di-GMP-II aptamer); higher = less ribozyme self-cleavage, higher mRNA level; conditions: reporter: mCherry (pCS4076), ligand present: no
Method in brief: (§1)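 For each 6-well well, 4 µg of library plasmid encoding mCherry-linked ribozyme switches, or eGFP-linked ones in some ligand experiments, was transfected into HEK293T. Any ligand was added 1 h before transfection, and RNA was extracted with EDTA 72 h after it, then reverse-transcribed, amplified, barcoded and sequenced. RNA level was obtained by dividing RNA reads by DNA reads, normalizing to a spiked-in non-cleaving sequence or to the top sequences, then scaling and log-transforming. The top set was 25 sequences, scaling was ×100 with log10, and ≥100 DNA reads were required.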

[2] = variants of: B1; assay: normalized RNA/DNA level with ligand (relative to sTRSVctl = 100) (log10 (% of sTRSVctl)); HEK293T; ligand: cyclic di-GMP (c-di-GMP-II aptamer); ligand concentration (+) RNA-Seq: 1 mM; higher = less ribozyme self-cleavage, higher mRNA level; conditions: reporter: mCherry (pCS4076), ligand present: yes
Method in brief: as §1

| Variant | normalized RNA/DNA level without ligand (log10) [1] | normalized RNA/DNA level with ligand (log10) [2] |
| --- | --- | --- |
| GCUGUCACCGAGAAACUGUGAAGUAUAUCUUAAACCUGGGCACUUAAAAGAUAUAUGGAGUUAGUAGUGCAACCUGCUCGGUCUGAUGAGUCCCGUUACGGACGAAACAGC | 1.57 ± 0.059 | 1.74 ± 0.064 |
| GCUGUCACCGAGAAACUGUGAAGUAUAUCUUAAACCUGGGCACUUAAAAGAUAUAUGGAGUUAGUAGUGCAACCUGCUCGGUCUGAUGAGUCCCGUUAGGGACGAAACAGC | 1.753 ± 0.0013 | 1.89 ± 0.11 |
| GCUGUCACCGAGAAACUGUGAAGUAUAUCUUAAACCUGGGCACUUAAAAGAUAUAUGGAGUUAGUAGUGCAACCUGCUCGGUCUGAUGAGUCCAGUUACGGACGAAACAGC | 1.7078 ± 0.0015 | 1.85 ± 0.15 |
| GCUGUCACCGAGAAACUGUGAAGUAUAUCUUAAACCUGGGCACUUAAAAGAUAUAUGGAGUUAGUAGUGCAACCUGCUCGGUCUGAUGAGUCCAGUUAAGGACGAAACAGC | 1.52 ± 0.08 | 1.68 ± 0.086 |
| GCUGUCACCGAGAAACUGUGAAGUAUAUCUUAAACCUGGGCACUUAAAAGAUAUAUGGAGUUAGUAGUGCAACCUGCUCGGUCUGAUGAGUCCUGUUAAGGACGAAACAGC | 1.693 ± 0.01 | 1.85 ± 0.09 |
| GCUGUCACCGAGAAACUGUGAAGUAUAUCUUAAACCUGGGCACUUAAAAGAUAUAUGGAGUUAGUAGUGCAACCUGCUCGGUCUGAUGAGUCCUGUUACGGACGAAACAGC | 1.735 ± 0.0055 | 1.91 ± 0.14 |
| GCUGUCACCGAGAAACUGUGAAGUAUAUCUUAAACCUGGGCACUUAAAAGAUAUAUGGAGUUAGUAGUGCAACCUGCUCGGUCUGAUGAGUCCUGUUAGGGACGAAACAGC | 1.74 ± 0.03 | 1.86 ± 0.14 |
| GCUGUCACCGAGAAACUGUGAAGUAUAUCUUAAACCUGGGCACUUAAAAGAUAUAUGGAGUUAGUAGUGCAACCUGCUCGGUCUGAUGAGUCCGGUUACGGACGAAACAGC | 1.76 ± 0.057 | 1.87 ± 0.033 |
| GCUGUCACCGAGAAACUGUGAAGUAUAUCUUAAACCUGGGCACUUAAAAGAUAUAUGGAGUUAGUAGUGCAACCUGCUCGGUCUGAUGAGUCCGGUUAAGGACGAAACAGC | 1.54 ± 0.11 | 1.67 ± 0.029 |
| GCUGUCACCGAGAAACUGUGAAGUAUAUCUUAAACCUGGGCACUUAAAAGAUAUAUGGAGUUAGUAGUGCAACCUGCUCGGUCUGAUGAGUCCGGUUAGGGACGAAACAGC | 1.54 ± 0.062 | 1.7 ± 0.08 |
| GCUGUCACCGAGAAACUGUGAAGUAUAUCUUAAACCUGGGCACUUAAAAGAUAUAUGGAGUUAGUAGUGCAACCUGCUCGGUCUGAUGAGUCCGGUGUUGGACGAAACAGC | 1.63 ± 0.037 | 1.86 ± 0.094 |
| GCUGUCACCGAGAAACUGUGAAGUAUAUCUUAAACCUGGGCACUUAAAAGAUAUAUGGAGUUAGUAGUGCAACCUGCUCGGUCUGAUGAGUCCGGUGUAGGACGAAACAGC | 1.6 ± 0.14 | 1.76 ± 0.14 |
| GCUGUCACCGAGAAACUGUGAAGUAUAUCUUAAACCUGGGCACUUAAAAGAUAUAUGGAGUUAGUAGUGCAACCUGCUCGGUCUGAUGAGUCCGGUGUCGGACGAAACAGC | 1.66 ± 0.019 | 1.8 ± 0.1 |
| GCUGUCACCGAGAAACUGUGAAGUAUAUCUUAAACCUGGGCACUUAAAAGAUAUAUGGAGUUAGUAGUGCAACCUGCUCGGUCUGAUGAGUCCAGUGGUGGACGAAACAGC | 1.56 ± 0.089 | 1.759 ± 0.014 |
| GCUGUCACCGAGAAACUGUGAAGUAUAUCUUAAACCUGGGCACUUAAAAGAUAUAUGGAGUUAGUAGUGCAACCUGCUCGGUCUGAUGAGUCCUGUGGUGGACGAAACAGC | 1.667 ± 0.012 | 1.81 ± 0.065 |
| GCUGUCACCGAGAAACUGUGAAGUAUAUCUUAAACCUGGGCACUUAAAAGAUAUAUGGAGUUAGUAGUGCAACCUGCUCGGUCUGAUGAGUCCAGUGUGGGACGAAACAGC | 1.57 ± 0.084 | 1.71 ± 0.13 |
| GCUGUCACCGAGAAACUGUGAAGUAUAUCUUAAACCUGGGCACUUAAAAGAUAUAUGGAGUUAGUAGUGCAACCUGCUCGGUCUGAUGAGUCCAGUGUUGGACGAAACAGC | 1.617 ± 0.0053 | 1.79 ± 0.12 |
| GCUGUCACCGAGAAACUGUGAAGUAUAUCUUAAACCUGGGCACUUAAAAGAUAUAUGGAGUUAGUAGUGCAACCUGCUCGGUCUGAUGAGUCCAGUGUAGGACGAAACAGC | 1.51 ± 0.042 | 1.66 ± 0.11 |
| GCUGUCACCGAGAAACUGUGAAGUAUAUCUUAAACCUGGGCACUUAAAAGAUAUAUGGAGUUAGUAGUGCAACCUGCUCGGUCUGAUGAGUCCUGUGUGGGACGAAACAGC | 1.69 ± 0.053 | 1.86 ± 0.056 |
| GCUGUCACCGAGAAACUGUGAAGUAUAUCUUAAACCUGGGCACUUAAAAGAUAUAUGGAGUUAGUAGUGCAACCUGCUCGGUCUGAUGAGUCCUGUGUCGGACGAAACAGC | 1.756 ± 0.0091 | 1.86 ± 0.1 |
| GCUGUCACCGAGAAACUGUGAAGUAUAUCUUAAACCUGGGCACUUAAAAGAUAUAUGGAGUUAGUAGUGCAACCUGCUCGGUCUGAUGAGUCCUGUGUUGGACGAAACAGC | 1.665 ± 0.0047 | 1.82 ± 0.16 |
| GCUGUCACCGAGAAACUGUGAAGUAUAUCUUAAACCUGGGCACUUAAAAGAUAUAUGGAGUUAGUAGUGCAACCUGCUCGGUCUGAUGAGUCCUGUGUAGGACGAAACAGC | 1.61 ± 0.045 | 1.74 ± 0.072 |
| GCUGUCACCGAGAAACUGUGAAGUAUAUCUUAAACCUGGGCACUUAAAAGAUAUAUGGAGUUAGUAGUGCAACCUGCUCGGUCUGAUGAGUCCCGUGUUGGACGAAACAGC | 1.6 ± 0.033 | 1.78 ± 0.12 |
| GCUGUCACCGAGAAACUGUGAAGUAUAUCUUAAACCUGGGCACUUAAAAGAUAUAUGGAGUUAGUAGUGCAACCUGCUCGGUCUGAUGAGUCCCGUGUCGGACGAAACAGC | 1.67 ± 0.055 | 1.82 ± 0.038 |
| GCUGUCACCGAGAAACUGUGAAGUAUAUCUUAAACCUGGGCACUUAAAAGAUAUAUGGAGUUAGUAGUGCAACCUGCUCGGUCUGAUGAGUCCCGUGUAGGACGAAACAGC | 1.4 ± 0.062 | 1.56 ± 0.13 |
| GCUGUCACCGAGAAACUGUGAAGUAUAUCUUAAACCUGGGCACUUAAAAGAUAUAUGGAGUUAGUAGUGCAACCUGCUCGGUCUGAUGAGUCCCGUGUGGGACGAAACAGC | 1.678 ± 0.0082 | 1.8 ± 0.092 |
